Source: patent publication US20150344535A1, “NEUROTROPHIN-TYROSINE KINASE RECEPTOR SIGNALING” (THE UNIVERSITY OF QUEENSLAND, priority 2012, published 2015)

How the values were obtained:
TrkAK538A = experiment: cell-based or functional assay
[1] = target: TrkA endogenously expressed in PC12 cells (UniProt P35739); experiment: cell-based or functional assay
Sequence of TrkA endogenously expressed in PC12 cells (P35739 33-799 limits assumed): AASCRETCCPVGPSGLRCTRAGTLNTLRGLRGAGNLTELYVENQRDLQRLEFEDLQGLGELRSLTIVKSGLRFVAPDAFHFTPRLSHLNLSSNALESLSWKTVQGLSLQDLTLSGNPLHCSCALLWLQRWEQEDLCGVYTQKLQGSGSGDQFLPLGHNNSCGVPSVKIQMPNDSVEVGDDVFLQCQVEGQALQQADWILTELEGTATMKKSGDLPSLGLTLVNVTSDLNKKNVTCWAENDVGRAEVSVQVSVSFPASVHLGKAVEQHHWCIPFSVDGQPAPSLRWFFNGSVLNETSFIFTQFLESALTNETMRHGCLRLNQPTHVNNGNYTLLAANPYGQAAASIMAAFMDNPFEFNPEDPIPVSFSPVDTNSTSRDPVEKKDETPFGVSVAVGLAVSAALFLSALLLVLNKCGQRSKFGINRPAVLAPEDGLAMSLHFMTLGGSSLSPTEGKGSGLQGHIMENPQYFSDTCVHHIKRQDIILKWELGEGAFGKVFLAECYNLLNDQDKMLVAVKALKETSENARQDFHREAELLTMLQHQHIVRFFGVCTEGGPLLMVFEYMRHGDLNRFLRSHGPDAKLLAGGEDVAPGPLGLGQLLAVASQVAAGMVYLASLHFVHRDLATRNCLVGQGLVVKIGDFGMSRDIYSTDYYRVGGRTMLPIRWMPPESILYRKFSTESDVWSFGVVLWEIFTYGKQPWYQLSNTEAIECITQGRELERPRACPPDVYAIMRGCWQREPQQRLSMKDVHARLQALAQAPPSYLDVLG

Substance: p75^ICD-YFP (from UniProt P08138 273-427) (receptor)
- neurite outgrowth of PC12 cells co-expressing p75^ICD and TrkAK538A after NGF treatment (TrkAK538A): 10 to 40 µm
- neurite outgrowth of PC12 cells overexpressing the construct, 100 ng/ml NGF, 5 days [1]: 60%
